In US20230357790, “SELF-TARGETING EXPRESSION VECTOR” (Touchlight IP Limited, published 2023):

Molecular target: Streptavidin (UniProt P22629 P22629:25-183)
Assay: no specific binding to plate; same buffer, room temp
Settings: chain copies: 4
Procedure: Obtained vectors were tested for binding a streptavidin-coated plate. The amount of DNA retained on the plate was detected by pico-green incorporation assay.
DNA was mixed with streptavidin-coated plate in binding buffer for 2 h, at room temp. Plate was washed 3× with same binding buffer, and the DNA that was bound to the plate was detected with PicoGreen assay in plate, without detaching DNA. [0490] Binding buffer (10×) [0491] 1 M NaCl [0492] 20 mM MgCl2 [0493] 50 mM KCl [0494] 10 mM CaCl2) [0495] 200 mM Tris-HCl, pH 7.6

Streptavidin, sequence (P22629 25-183, one chain of several): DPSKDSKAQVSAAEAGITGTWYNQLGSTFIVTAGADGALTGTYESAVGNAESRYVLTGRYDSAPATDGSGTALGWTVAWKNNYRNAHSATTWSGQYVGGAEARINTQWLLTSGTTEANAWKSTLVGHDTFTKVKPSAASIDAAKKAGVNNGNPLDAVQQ

B1: noApt vector cap (control) (structured_DNA)
DNA: CTGCTCACCTGCCAGCTACGGACGCGGAACGCGTCCGTAGCTGGCAGGTGAGCAG
binding result: no binding
